In article PMC9583166 (Frontiers in Cell and Developmental Biology, 2022):
Values belong to the binder of their own block, whether it stands above or below them.

How the values were obtained:
Experiment in all cases: fluorescence polarisation; increasing amounts of SIN1 protein titrated to 1 µM mGppNHp-bound GTPase; 21°C; 30 mM Tris/HCl pH 7.5, 150 mM NaCl, 5 mM MgCl2, 3 mM dithiothreitol; quadratic ligand binding equation
Settings in all cases: both partners purified
RHEB = molecular target: T1, RHEB ( (the printed accession is a …, UniProt Q15382 1-184))
T1 construct: RHEB, full length gene; Loaded with mant-GppNHp for fluorescence polarisation

KRAS4A [1] = molecular target: T2, KRAS4A ( (the printed accession is a …, UniProt P01116-1 1-189))
T2 construct: KRAS isoform 4A, full length gene; Loaded with mant-GppNHp for fluorescence polarisation; A farnesylated KRAS4A from insect cells was used only in liposome flotation

RHOA = molecular target: T3, RHOA ( (the printed accession is a …, UniProt P61586 1-193))
T3 construct: RHOA, full length gene; Loaded with mant-GppNHp for fluorescence polarisation

RIT1 [2] = molecular target: T4, RIT1 ( (the printed accession is a …, UniProt Q92963 1-219))
T4 construct: RIT1, full length gene; Loaded with mant-GppNHp for fluorescence polarisation

KRAS4B = molecular target: T5, KRAS4B ( (the printed accession is a …, UniProt P01116-2 1-188))
T5 construct: KRAS isoform 4B, full length gene; Loaded with mant-GppNHp for fluorescence polarisation

RALA = molecular target: T6, RALA ( (the printed accession is a …, UniProt P11233 1-206))
T6 construct: RALA, full length gene; Loaded with mant-GppNHp for fluorescence polarisation
T6 sequence (looked up): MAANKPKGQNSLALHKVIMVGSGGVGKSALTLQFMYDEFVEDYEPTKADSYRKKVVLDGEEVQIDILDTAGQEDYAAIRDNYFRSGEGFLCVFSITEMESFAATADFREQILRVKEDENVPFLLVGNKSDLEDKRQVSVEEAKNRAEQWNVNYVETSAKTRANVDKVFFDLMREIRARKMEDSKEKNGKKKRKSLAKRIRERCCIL

NRAS [3] = molecular target: T7, NRAS ( (the printed accession is a …, UniProt P01111 1-189))
T7 construct: NRAS, full length gene; Loaded with mant-GppNHp for fluorescence polarisation

TC21 = molecular target: T8, TC21 ( (the printed accession is a …, UniProt P62070 1-204))
T8 construct: RRAS2 (TC21), full length gene; Loaded with mant-GppNHp for fluorescence polarisation; also called RRAS2
T8 sequence (looked up): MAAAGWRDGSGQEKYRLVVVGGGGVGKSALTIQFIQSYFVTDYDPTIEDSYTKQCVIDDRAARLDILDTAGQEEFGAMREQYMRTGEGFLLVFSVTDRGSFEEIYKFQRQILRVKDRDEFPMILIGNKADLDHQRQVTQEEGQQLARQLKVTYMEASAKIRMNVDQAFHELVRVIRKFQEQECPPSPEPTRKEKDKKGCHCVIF

RAP2A = molecular target: T9, RAP2A ( (the printed accession is a …, UniProt P10114 1-183))
T9 construct: RAP2A, full length gene; Loaded with mant-GppNHp for fluorescence polarisation
T9 sequence (looked up): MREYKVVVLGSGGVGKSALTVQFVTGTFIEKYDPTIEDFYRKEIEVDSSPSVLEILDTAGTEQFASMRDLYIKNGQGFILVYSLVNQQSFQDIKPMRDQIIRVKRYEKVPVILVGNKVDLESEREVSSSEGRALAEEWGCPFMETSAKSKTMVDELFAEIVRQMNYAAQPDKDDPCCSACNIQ

ERAS = molecular target: T10, ERAS ( (the printed accession is a …, UniProt Q7Z444 1-233))
T10 construct: ERAS, full length gene; Loaded with mant-GppNHp for fluorescence polarisation
T10 sequence (looked up): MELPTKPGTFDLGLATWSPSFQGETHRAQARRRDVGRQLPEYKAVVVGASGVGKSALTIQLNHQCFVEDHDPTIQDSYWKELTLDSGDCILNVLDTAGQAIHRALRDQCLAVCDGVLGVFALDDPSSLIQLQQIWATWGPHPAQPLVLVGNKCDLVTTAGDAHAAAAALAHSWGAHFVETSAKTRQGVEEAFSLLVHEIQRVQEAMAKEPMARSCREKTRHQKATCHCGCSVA

RRAS = molecular target: T11, RRAS ( (the printed accession is a …, UniProt P10301 1-218))
T11 construct: RRAS (RRAS1), full length gene; Loaded with mant-GppNHp for fluorescence polarisation; also called RRAS1
T11 sequence (looked up): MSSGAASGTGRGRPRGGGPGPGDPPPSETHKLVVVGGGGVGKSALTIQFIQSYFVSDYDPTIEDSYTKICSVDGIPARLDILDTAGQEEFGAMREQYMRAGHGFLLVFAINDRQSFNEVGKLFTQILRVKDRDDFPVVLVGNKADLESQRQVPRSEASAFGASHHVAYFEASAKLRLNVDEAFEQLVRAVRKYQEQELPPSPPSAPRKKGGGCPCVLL

KRAS4A [4] = molecular target: T2, KRAS4A; remark: listed apart in the source
RIT1 [5] = molecular target: T4, RIT1; remark: listed apart in the source
KRAS4A [6] = molecular target: T2, KRAS4A; remark: listed apart in the source
HRAS = molecular target: T12, HRAS ( (the printed accession is a …, UniProt P01112 1-189))
T12 construct: HRAS, full length gene; Loaded with mant-GppNHp (or mant-GDP) for fluorescence polarisation; also called HRAS•mGppNHp; HRAS•mGDP

NRAS [7] = molecular target: T7, NRAS; remark: listed apart in the source

T4 sequence (Q92963 whole entry): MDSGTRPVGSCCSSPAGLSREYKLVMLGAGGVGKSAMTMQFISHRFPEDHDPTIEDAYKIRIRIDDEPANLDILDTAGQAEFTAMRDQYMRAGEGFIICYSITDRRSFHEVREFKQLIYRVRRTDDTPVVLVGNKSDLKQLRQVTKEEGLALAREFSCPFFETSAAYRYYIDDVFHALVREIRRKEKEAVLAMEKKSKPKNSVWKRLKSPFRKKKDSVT
T7 sequence (P01111 whole entry): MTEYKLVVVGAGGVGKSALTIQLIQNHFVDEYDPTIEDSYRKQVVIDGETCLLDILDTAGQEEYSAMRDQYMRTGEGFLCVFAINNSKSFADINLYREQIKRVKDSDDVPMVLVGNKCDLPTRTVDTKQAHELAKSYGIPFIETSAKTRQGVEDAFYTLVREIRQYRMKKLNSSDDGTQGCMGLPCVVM
T12 sequence (P01112 whole entry): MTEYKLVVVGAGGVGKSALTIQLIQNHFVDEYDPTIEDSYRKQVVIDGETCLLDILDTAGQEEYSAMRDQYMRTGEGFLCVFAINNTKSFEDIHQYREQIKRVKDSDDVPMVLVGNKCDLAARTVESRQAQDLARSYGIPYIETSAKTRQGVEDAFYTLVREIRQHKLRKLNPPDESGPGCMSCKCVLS
T3 sequence (P61586 whole entry): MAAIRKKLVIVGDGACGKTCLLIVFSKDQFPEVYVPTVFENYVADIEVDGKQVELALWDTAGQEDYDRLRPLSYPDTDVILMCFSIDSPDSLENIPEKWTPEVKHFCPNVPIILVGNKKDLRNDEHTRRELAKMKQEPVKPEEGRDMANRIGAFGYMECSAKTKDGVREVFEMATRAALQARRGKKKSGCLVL
T1 sequence (Q15382 whole entry): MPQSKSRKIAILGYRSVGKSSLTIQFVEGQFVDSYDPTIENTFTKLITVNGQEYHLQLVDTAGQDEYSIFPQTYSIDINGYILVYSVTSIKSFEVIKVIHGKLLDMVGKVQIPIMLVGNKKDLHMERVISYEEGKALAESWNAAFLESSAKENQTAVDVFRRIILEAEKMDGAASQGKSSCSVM

- Kd (RHEB): 358 µM
- Kd (KRAS4A [1]): 34 µM
- Kd (RHOA): 535 µM
- Kd (RIT1 [2]): 123 µM
- Kd (KRAS4B): 33 µM
- Kd (RALA): 331 µM
- Kd (NRAS [3]): 31 µM
- Kd (TC21): 878 µM
- Kd (RAP2A): 483 µM
- Kd (ERAS): 171 µM
- Kd (RRAS): 123 µM
- Kd (KRAS4A [4]): 35 µM
- Kd (RIT1 [5]): 112 µM
B1: SIN1-RBD (domain or fragment, UniProt Q9BPZ7 266-373, looked up)
chain: EKYSSPGLTSKESLFVRINAAHGFSLIQVDNTKVTMKEILLKAVKRRKGSQKVSGPQYRLEKQSEPNVAVDLDSTLESQSAWEFCLVRENSSRADGVFEEDSQIDIAT
notes: numbers count on isoform 1 (full length); As used in fluorescence polarisation; Limits: 266-373 in the methods, 279-353 in the results; also called SIN1-RBD^WT

- Kd (KRAS4A [6]): 654 µM
B2: SIN1-RBD^FSL289-291REE (domain or fragment, UniProt Q9BPZ7 266-373, looked up)
chain: EKYSSPGLTSKESLFVRINAAHGREEIQVDNTKVTMKEILLKAVKRRKGSQKVSGPQYRLEKQSEPNVAVDLDSTLESQSAWEFCLVRENSSRADGVFEEDSQIDIAT
notes: numbers count on isoform 1 (full length); also called SIN-RBD^FSL289-291REE; SIN1^FSL289-291REE

- Kd (KRAS4A [6]): 256 µM
- Kd (HRAS): 324 µM
- Kd (NRAS [7]): 166 µM
B3: SIN1-RBD^K307D (domain or fragment, UniProt Q9BPZ7 266-373, looked up)
chain: EKYSSPGLTSKESLFVRINAAHGFSLIQVDNTKVTMKEILLDAVKRRKGSQKVSGPQYRLEKQSEPNVAVDLDSTLESQSAWEFCLVRENSSRADGVFEEDSQIDIAT
notes: numbers count on isoform 1 (full length); also called SIN-RBD^K307D; SIN1^K307D

- Kd (KRAS4A [6]): 952 µM
- Kd (HRAS): 461 µM
B4: SIN1-RBD^RR311-312EE (domain or fragment, UniProt Q9BPZ7 266-373, looked up)
chain: EKYSSPGLTSKESLFVRINAAHGFSLIQVDNTKVTMKEILLKAVKEEKGSQKVSGPQYRLEKQSEPNVAVDLDSTLESQSAWEFCLVRENSSRADGVFEEDSQIDIAT
notes: numbers count on isoform 1 (full length); also called SIN-RBD^RR311,312EE; SIN1^RR311-312EE
